We go through 21 molecules from patent US20250243261A1 (CZ BIOHUB SF, published 2025).

Read-outs that look alike come from different tables or passages of the source.

The target in test [1] is T1, Ebola GP ectodomain (Mayinga, Zaire, 1976) with the mucin-like domain deleted (Zaire ebolavirus (Mayinga, 1976), UniProt Q05320 33-650).
Test [2] has as its target T1, Ebola GP ectodomain (Mayinga, Zaire, …). The source holds these as a separate data set.

B1: mAb114 UCA VH T41P IgG (antibody, V domains shown)
VH: EVQLVESGGGLVQPGGSLRLSCAASGFTFSSYDMHWVRQAPGKGLEWVSAIGTAGDTYYPGSVKGRFTISRENAKNSLYLQMNSLRAGDTAVYYCVRSDRGVAGLFDSWGQGTLVTVSS
VL: DIQMTQSPSSLSASVGDRVTITCRASQGISNYLAWYQQKPGKVPKLLIYAASTLQSGVPSRFSGSGSGTDFTLTISSLQPEDVATYYCQKYNSAPLTFGGGTKVEIK
With B1, binding in test [1] was put at a Kd of 100 nM.

B2: mAb114 UCA VH A54G IgG (antibody, V domains shown)
VH: EVQLVESGGGLVQPGGSLRLSCAASGFTFSSYDMHWVRQATGKGLEWVSAIGTGGDTYYPGSVKGRFTISRENAKNSLYLQMNSLRAGDTAVYYCVRSDRGVAGLFDSWGQGTLVTVSS
VL: DIQMTQSPSSLSASVGDRVTITCRASQGISNYLAWYQQKPGKVPKLLIYAASTLQSGVPSRFSGSGSGTDFTLTISSLQPEDVATYYCQKYNSAPLTFGGGTKVEIK
In test [1], B2 had an equilibrium dissociation constant (Kd) of 80000 nM.

B3: mAb114 UCA VH P60A IgG (antibody, V domains shown)
VH: EVQLVESGGGLVQPGGSLRLSCAASGFTFSSYDMHWVRQATGKGLEWVSAIGTAGDTYYAGSVKGRFTISRENAKNSLYLQMNSLRAGDTAVYYCVRSDRGVAGLFDSWGQGTLVTVSS
VL: DIQMTQSPSSLSASVGDRVTITCRASQGISNYLAWYQQKPGKVPKLLIYAASTLQSGVPSRFSGSGSGTDFTLTISSLQPEDVATYYCQKYNSAPLTFGGGTKVEIK
On to B3, for which the Kd in test [1] was 40000 nM.

B4: mAb114 VH M31S Fab (Fab, V domains shown)
VH: EVQLVESGGGLIQPGGSLRLSCAASGFALRSYDMHWVRQTIDKRLEWVSAVGPSGDTYYADSVKGRFAVSRENAKNSLSLQMNSLTAGDTAIYYCVRSDRGVAGLFDSWGQGILVTVSS
VL: DIQMTQSPSSLSASVGDRITITCRASQAFDNYVAWYQQRPGKVPKLLISAASALHAGVPSRFSGSGSGTHFTLTISSLQPEDVATYYCQNYNSAPLTFGGGTKVEIK
The molecule B4 displayed a dissociation constant (Kd) in test [2] of 0.1 nM.

B5: mAb114 VH I41P Fab (Fab, V domains shown)
VH: EVQLVESGGGLIQPGGSLRLSCAASGFALRMYDMHWVRQTPDKRLEWVSAVGPSGDTYYADSVKGRFAVSRENAKNSLSLQMNSLTAGDTAIYYCVRSDRGVAGLFDSWGQGILVTVSS
VL: DIQMTQSPSSLSASVGDRITITCRASQAFDNYVAWYQQRPGKVPKLLISAASALHAGVPSRFSGSGSGTHFTLTISSLQPEDVATYYCQNYNSAPLTFGGGTKVEIK
Regarding B5, the Kd in test [2] was 0.3 nM.

B6: mAb114 VL V43A Fab (Fab, V domains shown)
VH: EVQLVESGGGLIQPGGSLRLSCAASGFALRMYDMHWVRQTIDKRLEWVSAVGPSGDTYYADSVKGRFAVSRENAKNSLSLQMNSLTAGDTAIYYCVRSDRGVAGLFDSWGQGILVTVSS
VL: DIQMTQSPSSLSASVGDRITITCRASQAFDNYVAWYQQRPGKAPKLLISAASALHAGVPSRFSGSGSGTHFTLTISSLQPEDVATYYCQNYNSAPLTFGGGTKVEIK
In the case of B6, in test [2], the affinity, expressed as Kd, was 0.07 nM.

B7: mAb114 VL H70D Fab (Fab, V domains shown)
VH: EVQLVESGGGLIQPGGSLRLSCAASGFALRMYDMHWVRQTIDKRLEWVSAVGPSGDTYYADSVKGRFAVSRENAKNSLSLQMNSLTAGDTAIYYCVRSDRGVAGLFDSWGQGILVTVSS
VL: DIQMTQSPSSLSASVGDRITITCRASQAFDNYVAWYQQRPGKVPKLLISAASALHAGVPSRFSGSGSGTDFTLTISSLQPEDVATYYCQNYNSAPLTFGGGTKVEIK
Molecule B7 came in with a dissociation constant Kd in test [2] of 0.3 nM.

B8: mAb114 VH I41P-D42G-A68T-S79Y-I113T Fab (Fab, V domains shown)
VH: EVQLVESGGGLIQPGGSLRLSCAASGFALRMYDMHWVRQTPGKRLEWVSAVGPSGDTYYADSVKGRFTVSRENAKNSLYLQMNSLTAGDTAIYYCVRSDRGVAGLFDSWGQGTLVTVSS
VL: DIQMTQSPSSLSASVGDRITITCRASQAFDNYVAWYQQRPGKVPKLLISAASALHAGVPSRFSGSGSGTHFTLTISSLQPEDVATYYCQNYNSAPLTFGGGTKVEIK
Take B8: the equilibrium dissociation constant (Kd) in test [2] was 0.19 nM.

B9: mAb114 VH E72D Fab (Fab, V domains shown)
VH: EVQLVESGGGLIQPGGSLRLSCAASGFALRMYDMHWVRQTIDKRLEWVSAVGPSGDTYYADSVKGRFAVSRDNAKNSLSLQMNSLTAGDTAIYYCVRSDRGVAGLFDSWGQGILVTVSS
VL: DIQMTQSPSSLSASVGDRITITCRASQAFDNYVAWYQQRPGKVPKLLISAASALHAGVPSRFSGSGSGTHFTLTISSLQPEDVATYYCQNYNSAPLTFGGGTKVEIK
The molecule B9 returned an equilibrium dissociation constant (Kd) in test [2] of 0.1 nM.

B10: mAb114 VH I113T Fab (Fab, V domains shown)
VH: EVQLVESGGGLIQPGGSLRLSCAASGFALRMYDMHWVRQTIDKRLEWVSAVGPSGDTYYADSVKGRFAVSRENAKNSLSLQMNSLTAGDTAIYYCVRSDRGVAGLFDSWGQGTLVTVSS
VL: DIQMTQSPSSLSASVGDRITITCRASQAFDNYVAWYQQRPGKVPKLLISAASALHAGVPSRFSGSGSGTHFTLTISSLQPEDVATYYCQNYNSAPLTFGGGTKVEIK
Molecule B10 displayed a Kd in test [2] of 0.07 nM.

B11: mAb114 VL S49Y Fab (Fab, V domains shown)
VH: EVQLVESGGGLIQPGGSLRLSCAASGFALRMYDMHWVRQTIDKRLEWVSAVGPSGDTYYADSVKGRFAVSRENAKNSLSLQMNSLTAGDTAIYYCVRSDRGVAGLFDSWGQGILVTVSS
VL: DIQMTQSPSSLSASVGDRITITCRASQAFDNYVAWYQQRPGKVPKLLIYAASALHAGVPSRFSGSGSGTHFTLTISSLQPEDVATYYCQNYNSAPLTFGGGTKVEIK
On to B11, for which, in test [2], the Kd was found to be 0.6 nM.

B12: mAb114 VH A68T-E72D-S79Y-I113T / VL V43A Fab (Fab, V domains shown)
VH: EVQLVESGGGLIQPGGSLRLSCAASGFALRMYDMHWVRQTIDKRLEWVSAVGPSGDTYYADSVKGRFTVSRDNAKNSLYLQMNSLTAGDTAIYYCVRSDRGVAGLFDSWGQGTLVTVSS
VL: DIQMTQSPSSLSASVGDRITITCRASQAFDNYVAWYQQRPGKAPKLLISAASALHAGVPSRFSGSGSGTHFTLTISSLQPEDVATYYCQNYNSAPLTFGGGTKVEIK
Consider B12, for which the affinity in test [2], expressed as Kd, was 0.076 nM.

B13: mAb114 VL N90Q Fab (Fab, V domains shown)
VH: EVQLVESGGGLIQPGGSLRLSCAASGFALRMYDMHWVRQTIDKRLEWVSAVGPSGDTYYADSVKGRFAVSRENAKNSLSLQMNSLTAGDTAIYYCVRSDRGVAGLFDSWGQGILVTVSS
VL: DIQMTQSPSSLSASVGDRITITCRASQAFDNYVAWYQQRPGKVPKLLISAASALHAGVPSRFSGSGSGTHFTLTISSLQPEDVATYYCQQYNSAPLTFGGGTKVEIK
B13: binding in test [2] was characterised by a dissociation constant (Kd) of 4 nM.

B14: mAb114 VH A68T Fab (Fab, V domains shown)
VH: EVQLVESGGGLIQPGGSLRLSCAASGFALRMYDMHWVRQTIDKRLEWVSAVGPSGDTYYADSVKGRFTVSRENAKNSLSLQMNSLTAGDTAIYYCVRSDRGVAGLFDSWGQGILVTVSS
VL: DIQMTQSPSSLSASVGDRITITCRASQAFDNYVAWYQQRPGKVPKLLISAASALHAGVPSRFSGSGSGTHFTLTISSLQPEDVATYYCQNYNSAPLTFGGGTKVEIK
In turn, B14 registered a dissociation constant (Kd) in test [2] of 0.1 nM.

B15: mAb114 VL I19V Fab (Fab, V domains shown)
VH: EVQLVESGGGLIQPGGSLRLSCAASGFALRMYDMHWVRQTIDKRLEWVSAVGPSGDTYYADSVKGRFAVSRENAKNSLSLQMNSLTAGDTAIYYCVRSDRGVAGLFDSWGQGILVTVSS
VL: DIQMTQSPSSLSASVGDRVTITCRASQAFDNYVAWYQQRPGKVPKLLISAASALHAGVPSRFSGSGSGTHFTLTISSLQPEDVATYYCQNYNSAPLTFGGGTKVEIK
Consider B15, for which the Kd in test [2] was determined as 0.2 nM.

B16: mAb114 VH D42G Fab (Fab, V domains shown)
VH: EVQLVESGGGLIQPGGSLRLSCAASGFALRMYDMHWVRQTIGKRLEWVSAVGPSGDTYYADSVKGRFAVSRENAKNSLSLQMNSLTAGDTAIYYCVRSDRGVAGLFDSWGQGILVTVSS
VL: DIQMTQSPSSLSASVGDRITITCRASQAFDNYVAWYQQRPGKVPKLLISAASALHAGVPSRFSGSGSGTHFTLTISSLQPEDVATYYCQNYNSAPLTFGGGTKVEIK
In test [2], B16 had a Kd of 0.2 nM.

B17: mAb114 VL F29I Fab (Fab, V domains shown)
VH: EVQLVESGGGLIQPGGSLRLSCAASGFALRMYDMHWVRQTIDKRLEWVSAVGPSGDTYYADSVKGRFAVSRENAKNSLSLQMNSLTAGDTAIYYCVRSDRGVAGLFDSWGQGILVTVSS
VL: DIQMTQSPSSLSASVGDRITITCRASQAIDNYVAWYQQRPGKVPKLLISAASALHAGVPSRFSGSGSGTHFTLTISSLQPEDVATYYCQNYNSAPLTFGGGTKVEIK
The molecule B17 came in with a Kd in test [2] of 0.5 nM.

B18: mAb114 VH I41P-D42G-A68T-S79Y-I113T / VL V43A Fab (Fab, V domains shown)
VH: EVQLVESGGGLIQPGGSLRLSCAASGFALRMYDMHWVRQTPGKRLEWVSAVGPSGDTYYADSVKGRFTVSRENAKNSLYLQMNSLTAGDTAIYYCVRSDRGVAGLFDSWGQGTLVTVSS
VL: DIQMTQSPSSLSASVGDRITITCRASQAFDNYVAWYQQRPGKAPKLLISAASALHAGVPSRFSGSGSGTHFTLTISSLQPEDVATYYCQNYNSAPLTFGGGTKVEIK
With B18, in test [2], the dissociation constant Kd stood at 0.069 nM.

B19: mAb114 VH A68T-I113T / VL V43A Fab (Fab, V domains shown)
VH: EVQLVESGGGLIQPGGSLRLSCAASGFALRMYDMHWVRQTIDKRLEWVSAVGPSGDTYYADSVKGRFTVSRENAKNSLSLQMNSLTAGDTAIYYCVRSDRGVAGLFDSWGQGTLVTVSS
VL: DIQMTQSPSSLSASVGDRITITCRASQAFDNYVAWYQQRPGKAPKLLISAASALHAGVPSRFSGSGSGTHFTLTISSLQPEDVATYYCQNYNSAPLTFGGGTKVEIK
In test [2], B19 showed a Kd of 0.17 nM.

B20: mAb114 VH D42G-A68T-S79Y Fab (Fab, V domains shown)
VH: EVQLVESGGGLIQPGGSLRLSCAASGFALRMYDMHWVRQTIGKRLEWVSAVGPSGDTYYADSVKGRFTVSRENAKNSLYLQMNSLTAGDTAIYYCVRSDRGVAGLFDSWGQGILVTVSS
VL: DIQMTQSPSSLSASVGDRITITCRASQAFDNYVAWYQQRPGKVPKLLISAASALHAGVPSRFSGSGSGTHFTLTISSLQPEDVATYYCQNYNSAPLTFGGGTKVEIK
For B20, the dissociation constant (Kd) in test [2] was determined as 0.19 nM.

B21: mAb114 VH S79Y Fab (Fab, V domains shown)
VH: EVQLVESGGGLIQPGGSLRLSCAASGFALRMYDMHWVRQTIDKRLEWVSAVGPSGDTYYADSVKGRFAVSRENAKNSLYLQMNSLTAGDTAIYYCVRSDRGVAGLFDSWGQGILVTVSS
VL: DIQMTQSPSSLSASVGDRITITCRASQAFDNYVAWYQQRPGKVPKLLISAASALHAGVPSRFSGSGSGTHFTLTISSLQPEDVATYYCQNYNSAPLTFGGGTKVEIK
The molecule B21 yielded a dissociation constant Kd in test [2] of 0.1 nM.
